In the supplement of paper PMC9170038:

Test system: MS2 coat protein
Assay: apparent KD of MS2 coat protein; higher = weaker reporter binding
Settings: Eterna round: R107
Method in brief: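 Normalised binding curves from single clusters were fitted, and the median fit for each design is given as apparent KD. The clusters held designed RNA switches transcribed on-chip from Illumina sequencing clusters. These were titrated with SNAP-549-labelled MS2 coat protein (twofold steps from 0.7 or 1.5 nM to 3 µM, 0.8–1.5 h to 10–20 min per step) in 100 mM Tris-HCl pH 7.5, 80 mM KCl, 4 mM MgCl2, without or with constant ligand.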

[1] = input ligand: theophylline 20 uM
[2] = input ligand: theophylline 2 mM
[3] = input ligand: tryptophan 2.4 mM

Sequence	apparent KD of MS2 coat protein (input ligand: arginine 13.2 mM) [nM]	apparent KD of MS2 coat protein (input ligand: none) [nM]	apparent KD of MS2 coat protein [1] [nM]	apparent KD of MS2 coat protein [2] [nM]	apparent KD of MS2 coat protein [3] [nM]
CACAUGAGGAUCACCCAUGUCUGAACUGAAGGAGCGCUAAACAAGGCAGGUAGGUCGCGGAAUCGUGUGUGCAUAUGCACACGCG [9.V]	13.6	22	17.9	31.3	16.5
CACAUUUUUAGAAGGGCGGUUUCACUCCUGCGAGGACCGGUACGGCCGCCACUCGACAUGAGGAUCACCCAUGUGGAGAAGUUAG [Laesedti]	18.4		27.9	30.5	
CACGAAAGAUCGGCCGCCACUAAUCUAUGUGUUCUUUCACAUGAGGAUCACCCAUGUUCUUGCGUUAGGACCGGGAUUGAGCGUG [#02 Exclusion Tryptophan B]	29.9		39.7	36.6	
CACGAAAGAUCGGCCGCCACUAUUUGAUGUGUUCUUUCACAUGAGGAUCACCCAUGUUCUUAUUAUAGGACCGGGAUUGAGCGUG [ETB #3]	73.9		141	190	
CACGAAAGAUCGGCCGCCACUCAUGUAGCUUACAUGAGGAUCACCCAUGUAUUUUCUUUCUUUUAGAGGACCGGGAUCGAGCGUG [#02 Same State - Tryptophan B]	33.6		65.2	43.5	
CACGAAAGAUCGGCCGCCACUCAUGUUUCUUACAUGAGGAUCACCCAUGUAUUUUCUUUCUUUUAGAGGACCGGGAUUGAGCGUG [SSTB #1]	117		197	199	
CACGAUUUGUCGGCCGCCACUAAGGUAACUCUUCUCACAUGAGGAUCACCCAUGUGCCCGAAGCUUAGGACCGGGAUAAUGGGUG [Dieson]	32.3		150	288	
CACGGACGAGUGGAUCACCCUCGUAAUAACCGAGGACCGGUACGGCCGCCACUCGAAAACCGUGACCUGUACGAAAAGUGCAGGA	56.1	88.7	210	531	73.2
CACGGAUGAGUGGAUCACCCUCGUAAUAACCGAGGACCGGUACGGCCGCCACUCGAAAACCGUGACCUGUACGAAAAGUGCAGGA	56.7	36.5	399	1500	39.8
CAGCCUGGUUGGUAAAUCCCUCAUCGUGAUACCAGUCGAGUGAUCGACCCUUGGCAGCACAUGAGGAUCACCCAUGUGCUCGUAU [Diorqu]	18.6		31.1		17.9
CAGGUGCAGUCAGAUACCAGAUCUGCACAUGAGGAUCACCCAUGUGUAAUGAGUUCAAAGAUCCCUUGGCAGCUGUGUGAUCCGA [Onbidibe]	81.1		210		96.3
CAGUCAGUCAGUCAAUGAGUGAGCCAUGAAGGAGCGUGGGAAACCACAGGUAGGUCGCAUGGGAAACAUGAGGAUCACCCAUGUU [SSArg A #2]	27.5	25.5	36.9	36.2	28.2
CAUACUUUAGUAUGUUAUGUGGACAGUGAUACCAGAUACGAAAGUAUCCCUUGGCAGCACAACAUGAGGAUCACCCAUGUAAUUU [Theophylline A 5]	24.4		24.8		28.2
CAUCGUCGGUCGGCCGCCACUACUGGACAUGAGGAUCACCCAUGUGGCCCGCUGUAUUAACCGCGUAGGACCGGGACGGGAGGUA [theeternabot_exclusion_MS2_Trp_B_4]	24		48.6	39.3	
CAUGAAGUAACUGAUACCAGUGUACUGACAUGAGGAUCACCCAUGUUGGGUUUUGUUGUACACCCUUGGCAGCAGAAUCUUUAUG [AstrosExyTheB#4]	50		70.8		58.5
